In one series the target is T1, hnRNPA1 (UP1) (Homo sapiens, UniProt P09651).
T1 construct: UP1, first 196 amino acids (N-terminal fragment with both RRMs); pET-42a, GST-His tag cut by Factor Xa; E. coli BL21(DE3)
In words: isothermal titration calorimetry. The series is classed as binding. In general terms: Isothermal titration calorimetry measures the heat released or taken up as one component is titrated into another.

In series [1] the target is T2, hnRNPA1 N-terminal fragment (UP1) (human, UniProt P09651 1-196). In words: EMSA; without shikonin; shikonin 0-4 ug/test disrupts binding dose-dependently; EMSA: 20 mM HEPES, 50 mM KCl, 1 mM EDTA, 5 mM MgCl2, 0.1 mg/ml tRNA, 0.1 mg/ml BSA, 5 mM DTT, 10% glycerol, room temperature; ITC: 300 mM NaCl, 50 mM Tris-HCl. The conditions noted are these: protein: recombinant; tags: GST-His fusion tag removed with Factor Xa; label: 5'-biotin. For orientation: In EMSA bound probe runs differently from free probe, usually more slowly.

The target in series [2] is T2, hnRNPA1 N-terminal fragment (UP1). The series is described as follows: ITC; N = 1.17 +/- 0.128; pH 7.0; 3 uM UP1, 60 uM RNA; Kd not given in text; EMSA: 20 mM HEPES, 50 mM KCl, 1 mM EDTA, 5 mM MgCl2, 0.1 mg/ml tRNA, 0.1 mg/ml BSA, 5 mM DTT, 10% glycerol, room temperature; ITC: 300 mM NaCl, 50 mM Tris-HCl. The conditions noted are these: protein: recombinant; tags: GST-His fusion tag removed with Factor Xa.

The target is the same in series [3]. The series is described as follows: EMSA; shikonin 0-4 ug/test; EMSA: 20 mM HEPES, 50 mM KCl, 1 mM EDTA, 5 mM MgCl2, 0.1 mg/ml tRNA, 0.1 mg/ml BSA, 5 mM DTT, 10% glycerol, room temperature; ITC: 300 mM NaCl, 50 mM Tris-HCl. The conditions noted are these: protein: recombinant; tags: GST-His fusion tag removed with Factor Xa; label: 5'-biotin.
The target is the same in series [4]. The series is described as follows: EMSA; without shikonin; shikonin 0-4 ug/test disrupts binding; EMSA: 20 mM HEPES, 50 mM KCl, 1 mM EDTA, 5 mM MgCl2, 0.1 mg/ml tRNA, 0.1 mg/ml BSA, 5 mM DTT, 10% glycerol, room temperature; ITC: 300 mM NaCl, 50 mM Tris-HCl. The following applies: protein: recombinant; tags: GST-His fusion tag removed with Factor Xa; label: 5'-biotin.

T2 sequence (P09651 1-196): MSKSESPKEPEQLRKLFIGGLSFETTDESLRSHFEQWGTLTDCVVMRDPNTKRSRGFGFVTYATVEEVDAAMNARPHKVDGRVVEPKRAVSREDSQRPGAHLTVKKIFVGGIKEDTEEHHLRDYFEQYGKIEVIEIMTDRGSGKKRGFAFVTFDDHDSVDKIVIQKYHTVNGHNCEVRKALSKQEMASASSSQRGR
T1 sequence (P09651 1-196): as above

Consider `CC(C)=CC[C@@H](O)C1=CC(=O)c2c(O)ccc(O)c2C1=O` [shikonin], for which, at hnRNPA1 (UP1), the Kd (usually a measure of binding affinity in units of concentration) stood at 71.2 µM.

B1: TR2 (ssDNA)
DNA: TTAGGGTTAGCG
Regarding B1, in series [1], the binding result was “binds”.

B2: WT RNA (ITC) (ssRNA)
RNA: AUUUAGGGAUUUAGGGAAUG
As for B2, in series [2], the binding result is given as “binds”.

B3: M3 RNA (called M2 in Figure 2c legend) (ssRNA)
RNA: AUUUCGGGAUUUCGGGAAUG
Turning to B3, in series [3], the binding result is on record as “no binding”.

B4: WT RNA (ssRNA)
RNA: AUUUAGGGAUUUAGGGAAUG
As to B4, in series [4], the binding result is recorded as “binds”.

Source of the values: article PMC5190049, “Immunogenicity of mammary tumor cells can be induced by shikonin via direct binding-interference with hnRNPA1” (Oncotarget, 2016).
